Measured values published in PMC4363471, “Crystal Structure of Helicobacter pylori Pseudaminic Acid Biosynthesis N-Acetyltransferase PseH: Implications for Substrate Specificity and Catalysis” (PLoS ONE, 2015).

Molecular target: the molecule itself
Assay: SEC; Superdex 200 HiLoad 26/60 gel filtration, 50 mM Tris/HCl pH 8.0, 200 mM NaCl; molecular weight from a calibration plot of log MW versus retention volume

B1: Pseudaminic acid biosynthesis protein H (PseH) from Helicobacter pylori (enzyme, UniProt O25094 1-180, looked up)
chain: MKKNYSYKNIQAIDFTNLNDGEKLLVLEFRNHPNTALWMYSTFISLKTHLQFIEDLKNSPNHRYFLFKEEGVYLGVGSITKINFFHKHGYLGIYKNPFLKNGGETILKALEFIAFEEFQLHSLHLEVMENNFKAIAFYEKNHYELEGRLKGFISKDKEFIDVLLYYKDKKGYNDQSLLKL
notes: PseH, N-acetyltransferase (EC 2.3.1.202) of H. pylori, 21 kDa, residues 1-180; the construct carries an additional GIDPFT fragment (cloning artifact); it is probably N-terminal, left after cleavage of a vector tag (surmised); Crystallised with the cofactor acetyl-CoA; also called flagellin modification protein H; FlmH; source: recombinant, purified as previously described [14]
stoichiometry N: 2
